Consider 11 molecules from US20250361320A1 (Bristol-Myers Squibb, published 2025).

Numbering of substitutions follows the chain as printed.

B1: anti-CEACAM5 mAb MBN001 (antibody, V domains shown)
VH: QVQLVETGGGVVQPGRSLRLSCAASGITFSSHGMHWVRQSPGKGLEWVTFISYDGSYKSYVDSVKGRFAISRDNSKNTLYLQMNSLRPEDTAVYYCATGLTGTGAFDIWGQGTMVTVSS
VL: not shown
notes: also called MBN001 parent; bin 1 lead
B2: MBP003 (hIgG1 progeny of MBN001) (antibody, V domains shown)
VH: B1 VH with T7S, S40A, A69T, P88A
VL: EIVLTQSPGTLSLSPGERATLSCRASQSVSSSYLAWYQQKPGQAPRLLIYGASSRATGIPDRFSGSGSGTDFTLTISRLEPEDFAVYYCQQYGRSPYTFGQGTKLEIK
B3: MBP011 (hIgG1.3f progeny of MBN001) (antibody, V domains shown)
VH: B1 VH with T7S, S40A, Y57I, A69T, P88A
VL: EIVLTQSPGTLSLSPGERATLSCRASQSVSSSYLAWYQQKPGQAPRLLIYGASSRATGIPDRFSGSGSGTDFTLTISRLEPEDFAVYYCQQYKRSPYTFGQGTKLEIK
B4: MBP008 (hIgG1.3f progeny of MBN001) (antibody, V domains shown)
VH: B1 VH with T7S, S40A, A69T, P88A, G104N, F106L
VL: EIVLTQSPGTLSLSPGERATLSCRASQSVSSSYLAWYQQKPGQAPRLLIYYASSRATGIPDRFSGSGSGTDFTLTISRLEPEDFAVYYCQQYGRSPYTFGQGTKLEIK
B5: MBP009 (hIgG1.3f progeny of MBN001) (antibody, V domains shown)
VH: B1 VH with T7S, T28Y, S40A, A69T, P88A
VL: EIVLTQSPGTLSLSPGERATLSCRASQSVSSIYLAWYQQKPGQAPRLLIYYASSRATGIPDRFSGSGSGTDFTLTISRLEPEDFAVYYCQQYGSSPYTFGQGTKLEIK
B6: MBP002 (hIgG1 progeny of MBN001) (antibody, V domains shown)
VH: B1 VH with T7S, S40A, A69T, P88A, G104N, F106L
VL: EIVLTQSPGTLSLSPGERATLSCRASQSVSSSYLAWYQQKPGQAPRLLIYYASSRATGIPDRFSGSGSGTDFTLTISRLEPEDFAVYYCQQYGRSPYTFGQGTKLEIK
B7: MBP006 (hIgG1.3f progeny of MBN001) (antibody, V domains shown)
VH: B1 VH with T7S, S40A, K58I, A69T, P88A, F106N
VL: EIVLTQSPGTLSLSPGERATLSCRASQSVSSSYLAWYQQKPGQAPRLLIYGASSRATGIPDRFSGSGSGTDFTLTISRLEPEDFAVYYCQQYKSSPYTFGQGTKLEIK
B8: MBP007 (hIgG1.3f progeny of MBN001) (antibody, V domains shown)
VH: B1 VH with T7S, T28Y, S40A, A69T, P88A, F106N
VL: EIVLTQSPGTLSLSPGERATLSCRASQSVSSSYLAWYQQKPGQAPRLLIYGASSRATGIPDRFSGSGSGTDFTLTISRLEPEDFAVYYCQQNKPSPYTFGQGTKLEIK
B9: MBP005 (hIgG1.3f progeny of MBN001) (antibody, V domains shown)
VH: B1 VH with T7S, T28Y, S40A, A69T, P88A
VL: not shown
B10: MBP010 (hIgG1.3f progeny of MBN001) (antibody, V domains shown)
VH: B1 VH with T7S, S40A, G55S, A69T, P88A
VL: B8 VL with P94R
B11: MBP004 (hIgG1.3f progeny of MBN001) (antibody, V domains shown)
VH: B1 VH with T7S, S40A, A69T, P88A
VL: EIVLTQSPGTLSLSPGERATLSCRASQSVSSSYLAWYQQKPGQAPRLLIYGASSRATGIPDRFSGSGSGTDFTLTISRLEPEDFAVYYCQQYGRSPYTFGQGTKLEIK

The target in one test is T1, cynomolgus CEACAM5 on cells (HCT116-cyCEACAM5) (cynomolgus (Macaca fascicularis)).
T1 construct: also called cynoCEACAM-5
T1 chain: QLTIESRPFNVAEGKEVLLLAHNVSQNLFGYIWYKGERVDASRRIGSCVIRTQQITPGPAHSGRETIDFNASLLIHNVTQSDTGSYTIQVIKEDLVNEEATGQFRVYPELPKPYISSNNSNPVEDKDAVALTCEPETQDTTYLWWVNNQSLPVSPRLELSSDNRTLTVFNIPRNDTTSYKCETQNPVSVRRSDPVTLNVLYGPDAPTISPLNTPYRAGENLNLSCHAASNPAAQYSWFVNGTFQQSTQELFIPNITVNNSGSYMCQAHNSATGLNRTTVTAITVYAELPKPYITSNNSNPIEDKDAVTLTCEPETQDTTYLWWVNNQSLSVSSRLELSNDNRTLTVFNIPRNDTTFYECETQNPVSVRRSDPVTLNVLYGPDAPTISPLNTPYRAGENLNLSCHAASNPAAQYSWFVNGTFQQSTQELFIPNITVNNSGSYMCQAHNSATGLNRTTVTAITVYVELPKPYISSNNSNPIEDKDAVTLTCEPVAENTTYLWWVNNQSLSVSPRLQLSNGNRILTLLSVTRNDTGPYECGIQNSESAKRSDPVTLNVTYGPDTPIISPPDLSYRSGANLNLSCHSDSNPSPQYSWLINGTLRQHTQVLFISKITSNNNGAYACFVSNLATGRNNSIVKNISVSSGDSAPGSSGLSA
Put plainly: cell binding, HCT-116 cyCEACAM5 cells.
Turning to B1, the EC50 (in general, the concentration that produces a half-maximal response) amounted to 82.2 nM.

The target of a further test is T2, human CEACAM5 on cells (MKN45, BxPC-3, Ls174T, HCT116-huCEACAM5) (human, UniProt P06731 35-685).
T2 sequence: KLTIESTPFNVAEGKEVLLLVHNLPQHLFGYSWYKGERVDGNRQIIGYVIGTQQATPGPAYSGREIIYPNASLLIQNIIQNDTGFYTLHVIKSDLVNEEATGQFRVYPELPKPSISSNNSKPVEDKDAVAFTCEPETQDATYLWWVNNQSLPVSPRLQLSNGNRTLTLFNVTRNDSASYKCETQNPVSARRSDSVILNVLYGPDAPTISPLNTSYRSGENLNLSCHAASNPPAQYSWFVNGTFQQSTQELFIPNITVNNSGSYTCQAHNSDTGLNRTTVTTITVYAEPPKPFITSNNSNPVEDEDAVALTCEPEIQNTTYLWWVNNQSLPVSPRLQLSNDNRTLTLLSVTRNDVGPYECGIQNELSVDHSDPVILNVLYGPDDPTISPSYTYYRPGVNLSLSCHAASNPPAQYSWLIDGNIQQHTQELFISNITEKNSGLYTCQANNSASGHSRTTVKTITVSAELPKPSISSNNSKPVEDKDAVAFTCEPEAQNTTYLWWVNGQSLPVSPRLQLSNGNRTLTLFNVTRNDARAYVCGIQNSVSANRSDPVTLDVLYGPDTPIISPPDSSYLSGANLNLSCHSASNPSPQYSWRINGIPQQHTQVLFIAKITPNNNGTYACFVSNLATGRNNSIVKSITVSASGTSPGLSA
Nature of the test: cell-based or functional assay.
As to B2, the “Ls174T 5-day cytotoxicity (AUC), antibody with cytotoxic payload” value (“Ls174T 5-day cytotoxicity (AUC)” for short) is 18500 and the “MKN45 5-day cytotoxicity (AUC), antibody with cytotoxic payload” value (from here on “MKN45 5-day cytotoxicity (AUC), antibody”) worked out at 24400.
The like results for B3 were, in that order, 939 and 1770.
The like results for B4 were, in that order, 1140 and 2200.
On to B5, for which the “Ls174T 5-day cytotoxicity (AUC)” value is 1040 and the “MKN45 5-day cytotoxicity (AUC), antibody” value came out at 2200.
The like results for B6 were, in that order, 18900 and 24100.
The like results for B7 were, in that order, 902 and 2440.
The like results for B8 were, in that order, 834 and 2070.
Regarding B9, the “Ls174T 5-day cytotoxicity (AUC)” value came to 964 and the “MKN45 5-day cytotoxicity (AUC), antibody” value amounted to 2350.
The like results for B10 were, in that order, 910 and 1360.
In the same order, the values of B11 are 865 and 2380.
